# Key:
# [1] = target: recombinant His-tagged HIV-1 integrase P26 (A128T/H171Q/K173Q/N254K) (IN^P26) (HIV-1 (NL4-3)); experiment: cross-linking
# [2] = target: recombinant His-tagged HIV-1 integrase P26 (A128T/H171Q/K173Q/N254K) (IN^P26) (HIV-1 (NL4-3)); experiment: SEC
# [3] = target: recombinant His-tagged HIV-1 integrase P20 (A128T/K173Q/N254K) (IN^P20) (HIV-1 (NL4-3)); experiment: SEC
# [4] = target: recombinant His-tagged HIV-1 integrase R269A/K273A (IN^RAKA) (HIV-1 (NL4-3)); experiment: cross-linking
# [5] = target: recombinant His-tagged HIV-1 integrase P15 (A128T/K173Q) (IN^P15) (HIV-1 (NL4-3)); experiment: SEC
substance,measurement,setting,value
recombinant His-tagged HIV-1 integrase P26 (A128T/H171Q/K173Q/N254K) (IN^P26) (enzyme),"multimer ratio, dimers",[1],19.6%
same,"multimer ratio, tetramers",[1],3.3%
same,stoichiometry N,[1],4
same,stoichiometry N,[2],2
recombinant His-tagged HIV-1 integrase P20 (A128T/K173Q/N254K) (IN^P20) (enzyme),stoichiometry N,[3],2
recombinant His-tagged HIV-1 integrase R269A/K273A (IN^RAKA) (enzyme),stoichiometry N,[4],4
recombinant His-tagged HIV-1 integrase P15 (A128T/K173Q) (IN^P15) (enzyme),stoichiometry N,[5],2

# From article doi:10.1101/836718
